From US7935343B2

Columns and labels:
human IL-13 (human) [1] = target: human IL-13 (human)
[2] = target: native human IL-13 released from HDLM-2 cells (human)
human IL-13 (human) [3] = target: human IL-13 (human); remark: listed apart in the source
[4] = target: non-human primate IL-13 (rhesus and cynomolgus, identical) with carboxyl terminus affinity tag (cynomolgus and rhesus monkey)
[5] = target: human IL-13 variant (Q130R) with carboxyl terminus affinity tag (baculovirus expression) (human)
Sequence of human IL-13 variant (Q130R) with carboxyl terminus affinity tag (baculovirus expression) (human) (chain, as listed by the source Q130R Q130R): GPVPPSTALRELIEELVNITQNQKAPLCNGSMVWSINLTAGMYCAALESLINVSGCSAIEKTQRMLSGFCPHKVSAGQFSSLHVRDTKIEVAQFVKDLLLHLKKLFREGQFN

Sequence of non-human primate IL-13 (rhesus and cynomolgus, identical) with carboxyl terminus affinity tag (cynomolgus and rhesus monkey) (chain, as listed by the source): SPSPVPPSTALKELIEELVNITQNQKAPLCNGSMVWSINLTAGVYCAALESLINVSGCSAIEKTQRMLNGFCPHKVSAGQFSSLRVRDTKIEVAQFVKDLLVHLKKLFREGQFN

| IC50, eotaxin release from NHLF (human IL-13 (human) [1]) [nM] | IC50, HDLM-2 cell proliferation [2] [nM] | IC50, TF-1 proliferation (human IL-13 (human) [3]) [nM] | IC50, TF-1 cell proliferation [4] [nM] | IC50, TF-1 cell proliferation [5] [nM] | Substance |
| --- | --- | --- | --- | --- | --- |
| 0.219 | 16.7 | 1.02 | – | – | B-B13 (mouse IgG1, Euroclone) (antibody) |
| – | – | – | 2 | 1.9 | BAK502G9 IgG4 (antibody) |
| 0.623 | 10.7 | 0.471 | – | – | JES10-5A2 (rat IgG1, Biosource) (antibody) |
